Data on two compounds can be found in patent EP4691498A1, “ANTIBODY-DRUG CONJUGATE, AND PREPARATION METHOD THEREFOR AND USE THEREOF” (Chengdu Scimount Pharmatech Co., Ltd., priority 2023, dated 2024).

Read-outs that look alike come from different tables or passages of the source.

Data set [1] in a line: Safety evaluation, repeated intravenous infusion (HNSTD). It counts as in vivo. To be noted: monkey HNSTD expressed as eribulin amount. The procedure: Four groups were set up for this test, namely the vehicle control group and SMP-656 groups with different doses (5, 10, 15 mg/kg), with 10 animals in each group, including 5 females and 5 males. Monkeys in each group were intravenously infused (for 30 min) with SMP-656 at doses of 5, 10 and 15 mg/kg at a volume of 10 mL/kg, once every three weeks, for 3 administrations (total 9 weeks), followed by a 4-week recovery period.
During the test, detailed clinical observations, and body weight and food intake monitoring were performed once a week. Clinical pathology examinations (including: hematology, coagulation, serum biochemistry, and urine analysis) were performed on Day 7, Day 50 and Day 71 respectively. The observation of irritation at the administration site was conducted once a week during the administration period, 2-4 h after administration on the administration day, and once a week during the recovery period. For animals with symptoms, the observation frequency was increased to daily until the symptoms disappeared. All surviving animals underwent accompanying toxicokinetic testing on Day 1 and Day 22. At the end of the administration period and the end of the recovery period, all surviving animals were euthanized as planned, dissected and grossly observed, and tissues and organs were weighed or fixed and preserved for pathological examination.

For data set [2] the following is noted: highest non-severe toxic dose; from literature references 1 and 2; cited from earlier work.
For data set [3] the following is noted: highest non-severe toxic dose; from literature references 1 and 2; cited from earlier work. The source holds these as a separate data set.

In the case of “MORAb-202: ADC with Eribulin as a small-molecule toxin, set DAR of 4”, in data set [1], the “Equivalent to eribulin amount” value worked out at 0.12 mg/kg. Also, the “Monkey HNSTD (mg/kg)” value in data set [2] is reported as 6^1 mg/kg.

As for `C=C1C[C@@H]2CC[C@@]34C[C@H]5O[C@H]6[C@@H](O3)[C@H]3O[C@H](CC[C@@H]3O[C@H]6[C@H]5O4)CC(=O)C[C@@H]3[C@@H](OC)[C@@H](C[C@H](O)CN)O[C@H]3C[C@H]3O[C@@H](CC[C@@H]1O2)C[C@@H](C)C3=C` [Eribulin], the “Equivalent to eribulin amount” value in data set [1] worked out at 0.03 mg/kg. In data set [3], the “Monkey HNSTD (mg/kg)” value is recorded as 0.03^2 mg/kg.
